± gives the standard deviation of the averaged measurements.
Experiments:
Saccharomyces cerevisiae [1] = experiment: protein stability index of tFT-peptide fusion (C-terminal peptide) (PSI (0-1 scale)); higher = more stable (slower turnover)
Method: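 MPS profiling in S. cerevisiae of the tFT-X12 degron library: putative degron peptides plus stable controls, 12 aa, fused to the C-terminus of a sfGFP-mCherry timer. Cells are FACS-sorted into 8 mCherry/sfGFP bins and deep-sequenced. PSI runs from 0 (unstable) to 1 (stable). Backgrounds are wild type, das1Δ and doa10Δ at 30 °C, and wild type, das1Δ, cdc34-1 and cdc53-1 at 37 °C; 2-3 technical replicates each.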

Saccharomyces cerevisiae [2] = experiment: as above; conditions: genetic background: wild type; temperature: 30 C
[3] = genetic background: cdc34-1, temperature: 37 C
[4] = genetic background: cdc53-1, temperature: 37 C
[5] = genetic background: das1 deletion, temperature: 30 C
[6] = genetic background: das1 deletion, temperature: 37 C
[7] = genetic background: doa10 deletion, temperature: 30 C
[8] = genetic background: wild type, temperature: 30 C
[9] = genetic background: wild type, temperature: 37 C
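Note: PSI is a weighted mean of sequencing reads over stability bins, variants kept only with over 10 reads, mCherry proximal and sfGFP distal, peptide attached via GGGS linker.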

| Sequence | protein stability index (Saccharomyces cerevisiae [1]; [3]) | protein stability index (Saccharomyces cerevisiae [1]; [4]) | protein stability index (Saccharomyces cerevisiae [1]; [5]) | protein stability index (Saccharomyces cerevisiae [1]; [6]) | protein stability index (Saccharomyces cerevisiae [1]; [7]) | protein stability index (Saccharomyces cerevisiae [1]; [8]) | protein stability index (Saccharomyces cerevisiae [1]; [9]) | protein stability index (Saccharomyces cerevisiae [2]) |
| --- | --- | --- | --- | --- | --- | --- | --- | --- |
| LLILIVNLRRIG | 0.376 ± 0.0085 | 0.556 ± 0.069 | 0.36 ± 0.04 | 0.607 ± 0.028 | 0.1983 ± 0.0009 | 0.235 ± 0.011 | 0.444 ± 0.025 | 0.281 ± 0.052 |
| LLISPFLFLLVC | 0.0704 ± 0.043 | 0.0371 ± 0.002 | 0.0907 ± 0.02 | 0.0981 ± 0.022 | 0.0594 ± 0.018 | 0.0605 ± 0.014 | 0.0515 ± 0.00088 | 0.0803 ± 0.024 |
| LLLLGVSLFLVR | 0.282 ± 0.0053 | 0.378 ± 0.011 | 0.265 ± 0.019 | 0.454 ± 0.0081 | 0.223 ± 0.013 | 0.255 ± 0.018 | 0.4257 ± 0.0031 | 0.3657 ± 0.00075 |
| LLLPSAPFLFLL | 0.305 ± 0.015 | 0.256 ± 0.0043 | 0.307 ± 0.041 | 0.435 ± 0.029 | 0.3387 ± 0.0022 | 0.201 ± 0.017 | 0.288 ± 0.014 | 0.2954 ± 0.0012 |
| LLMLWWARVFSG | 0.296 ± 0.032 | 0.395 ± 0.045 | 0.298 ± 0.015 | 0.408 ± 0.0072 | 0.209 ± 0.016 | 0.243 ± 0.036 | 0.35 ± 0.0075 | 0.329 ± 0.0066 |
| LLVFWRLWWSLS | 0.248 ± 0.035 | 0.334 ± 0.011 | 0.251 ± 0.034 | 0.429 ± 0.028 | 0.081 ± 0.026 | 0.0903 ± 0.018 | 0.128 ± 0.007 | 0.157 ± 0.0075 |
| LLVKFTFLIIFT | 0.146 ± 0.0079 | 0.257 ± 0.089 | 0.191 ± 0.011 | 0.31 ± 0.019 | 0.27 ± 0.02 | 0.2 ± 0.015 | 0.2767 ± 0.0024 | 0.266 ± 0.025 |
| LLVLPFFSLSRF | 0.896 ± 0.028 | 0.90351 ± 0.00018 | 0.774 ± 0.0081 | 0.8734 ± 0.0026 | 0.748 ± 0.024 | 0.763 ± 0.017 | 0.852 ± 0.019 | 0.816 ± 0.01 |
| LLVVFSCFTFMF | 0.259 ± 0.0096 | 0.399 ± 0.042 | 0.277 ± 0.032 | 0.476 ± 0.0058 | 0.254 ± 0.027 | 0.279 ± 0.028 | 0.449 ± 0.022 | 0.38 ± 0.037 |
| LMLGARVSRRIH | 0.64 ± 0.082 | 0.687 ± 0.015 | 0.673 ± 0.026 | 0.707 ± 0.026 | 0.227 ± 0.02 | 0.263 ± 0.049 | 0.5065 ± 0.0015 | 0.402 ± 0.0098 |
| LNALSHCRAICS | 0.632 ± 0.027 | 0.687 ± 0.0091 | 0.604 ± 0.023 | 0.692 ± 0.015 | 0.238 ± 0.0073 | 0.268 ± 0.028 | 0.462 ± 0.0055 | 0.379 ± 0.039 |
| LPASLSLWPLLC | 0.4736 ± 0.0023 | 0.604 ± 0.025 | 0.537 ± 0.019 | 0.668 ± 0.012 | 0.0836 ± 0.017 | 0.0983 ± 0.017 | 0.127 ± 0.015 | 0.1137 ± 0.0011 |
| LPPHLPFPLSAA | 0.657 ± 0.0098 | 0.7225 ± 0.0025 | 0.638 ± 0.0075 | 0.724 ± 0.019 | 0.43 ± 0.0083 | 0.462 ± 0.019 | 0.621 ± 0.0089 | 0.383 ± 0.011 |
| LPSPLLFLPALF | 0.708 ± 0.017 | 0.7877 ± 0.0075 | 0.667 ± 0.025 | 0.778 ± 0.055 | 0.405 ± 0.011 | 0.436 ± 0.011 | 0.614 ± 0.017 | 0.466 ± 0.014 |
| LQSVAFERGGPD | 0.687 ± 0.017 | 0.736 ± 0.0092 | 0.649 ± 0.0084 | 0.729 ± 0.015 | 0.647 ± 0.026 | 0.661 ± 0.0084 | 0.7194 ± 0.0071 | 0.727 ± 0.018 |
| LRSVVFFCRTLL | 0.677 ± 0.045 | 0.7436 ± 0.0044 | 0.623 ± 0.014 | 0.731 ± 0.013 | 0.3373 ± 0.0013 | 0.362 ± 0.015 | 0.566 ± 0.017 | 0.5 ± 0.0099 |
| LSFFDYVLLQIA | 0.556 ± 0.03 | 0.58 ± 0.029 | 0.462 ± 0.032 | 0.635 ± 0.0073 | 0.166 ± 0.013 | 0.199 ± 0.028 | 0.317 ± 0.027 | 0.285 ± 0.01 |
| LSLGVGSDAEGG | 0.687 ± 0.06 | 0.736 ± 0.015 | 0.64 ± 0.02 | 0.743 ± 0.031 | 0.646 ± 0.021 | 0.645 ± 0.007 | 0.712 ± 0.0096 | 0.549 ± 0.17 |
| LSYRFVFRFLLF | 0.543 ± 0.067 | 0.592 ± 0.0035 | 0.525 ± 0.013 | 0.573 ± 0.014 | 0.39 ± 0.017 | 0.372 ± 0.027 | 0.472 ± 0.0083 | 0.421 ± 0.0094 |
| LVCLFFLSSLFF | 0.547 ± 0.05 | 0.606 ± 0.0081 | 0.495 ± 0.046 | 0.602 ± 0.022 | 0.46 ± 0.016 | 0.464 ± 0.02 | 0.58 ± 0.017 | 0.4609 ± 0.0043 |
